# The supplement of paper PMC10567573
# B1: FAM98B (parent)
# chain: QLDKNSEVYQEVQAMFDTLGIPKS
# Variants of: B1
# Assay: protein stability index of a GFP-peptide fusion (GPS, HEK-293T) (PSI 1-6); higher = more stable
# Settings: c terminus: a fixed tail appended
# 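Also: lentivirally expressed fusions sorted by FACS into six bins by GFP to DsRed ratio, PSI derived from sequencing read proportions per bin multiplied by bin number.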
row,Variant,protein stability index
1,QLDKNCEVYQEVQAMFDTLGIPKS,2.77
2,QLDKNDEVYQEVQAMFDTLGIPKS,4.67
3,QLDKNEEVYQEVQAMFDTLGIPKS,4.21
4,QLDKNFEVYQEVQAMFDTLGIPKS,2.63
5,QLDKNGEVYQEVQAMFDTLGIPKS,3.56
6,QLDKNHEVYQEVQAMFDTLGIPKS,3.35
7,QLDKNIEVYQEVQAMFDTLGIPKS,2.69
8,QLDKNKEVYQEVQAMFDTLGIPKS,3.23
9,QLDKNLEVYQEVQAMFDTLGIPKS,2.66
10,QLDKNMEVYQEVQAMFDTLGIPKS,3.23
11,QLDKNNEVYQEVQAMFDTLGIPKS,3.29
12,QLDKNPEVYQEVQAMFDTLGIPKS,4
13,QLDKNQEVYQEVQAMFDTLGIPKS,3.14
14,QLDKNREVYQEVQAMFDTLGIPKS,2.88
15,QLDKNTEVYQEVQAMFDTLGIPKS,3.53
16,QLDKNVEVYQEVQAMFDTLGIPKS,3.47
17,QLDKNWEVYQEVQAMFDTLGIPKS,2.32
18,QLDKNYEVYQEVQAMFDTLGIPKS,2.71
19,QLDKNSAVYQEVQAMFDTLGIPKS,3.44
20,QLDKNSCVYQEVQAMFDTLGIPKS,2.62
21,QLDKNSDVYQEVQAMFDTLGIPKS,3.86
22,QLDKNSFVYQEVQAMFDTLGIPKS,2.39
23,QLDKNSGVYQEVQAMFDTLGIPKS,2.97
24,QLDKNSHVYQEVQAMFDTLGIPKS,2.51

row,Variant,protein stability index
1,QLDKNSIVYQEVQAMFDTLGIPKS,1.99
2,QLDKNSKVYQEVQAMFDTLGIPKS,3.06
3,QLDKNSLVYQEVQAMFDTLGIPKS,3.05
4,QLDKNSMVYQEVQAMFDTLGIPKS,3.01
5,QLDKNSNVYQEVQAMFDTLGIPKS,3.2
6,QLDKNSPVYQEVQAMFDTLGIPKS,2.58
7,QLDKNSQVYQEVQAMFDTLGIPKS,2.81
8,QLDKNSRVYQEVQAMFDTLGIPKS,2.87
9,QLDKNSSVYQEVQAMFDTLGIPKS,2.77
10,QLDKNSTVYQEVQAMFDTLGIPKS,2.83
11,QLDKNSVVYQEVQAMFDTLGIPKS,2.58
12,QLDKNSWVYQEVQAMFDTLGIPKS,2.13
13,QLDKNSYVYQEVQAMFDTLGIPKS,2.26
14,QLDKNSEAYQEVQAMFDTLGIPKS,3.85
15,QLDKNSECYQEVQAMFDTLGIPKS,3.02
16,QLDKNSEDYQEVQAMFDTLGIPKS,3.62
17,QLDKNSEEYQEVQAMFDTLGIPKS,3.79
18,QLDKNSEFYQEVQAMFDTLGIPKS,2.55
19,QLDKNSEGYQEVQAMFDTLGIPKS,3.12
20,QLDKNSEHYQEVQAMFDTLGIPKS,3.12
21,QLDKNSEIYQEVQAMFDTLGIPKS,2.73
22,QLDKNSEKYQEVQAMFDTLGIPKS,3.07
23,QLDKNSELYQEVQAMFDTLGIPKS,3.47
24,QLDKNSEMYQEVQAMFDTLGIPKS,3.2

row,Variant,protein stability index
1,QLDKNSENYQEVQAMFDTLGIPKS,3.94
2,QLDKNSEPYQEVQAMFDTLGIPKS,3.32
3,QLDKNSEQYQEVQAMFDTLGIPKS,3.31
4,QLDKNSERYQEVQAMFDTLGIPKS,3.36
5,QLDKNSESYQEVQAMFDTLGIPKS,3.35
6,QLDKNSETYQEVQAMFDTLGIPKS,3.81
7,QLDKNSEWYQEVQAMFDTLGIPKS,2.88
8,QLDKNSEYYQEVQAMFDTLGIPKS,2.96
9,QLDKNSEVAQEVQAMFDTLGIPKS,4.12
10,QLDKNSEVCQEVQAMFDTLGIPKS,3.58
11,QLDKNSEVDQEVQAMFDTLGIPKS,4.2
12,QLDKNSEVEQEVQAMFDTLGIPKS,4.4
13,QLDKNSEVFQEVQAMFDTLGIPKS,2.72
14,QLDKNSEVGQEVQAMFDTLGIPKS,3.5
15,QLDKNSEVHQEVQAMFDTLGIPKS,3.55
16,QLDKNSEVIQEVQAMFDTLGIPKS,3.67
17,QLDKNSEVKQEVQAMFDTLGIPKS,3.72
18,QLDKNSEVLQEVQAMFDTLGIPKS,3.2
19,QLDKNSEVMQEVQAMFDTLGIPKS,3.66
20,QLDKNSEVNQEVQAMFDTLGIPKS,3.52
21,QLDKNSEVPQEVQAMFDTLGIPKS,3.57
22,QLDKNSEVQQEVQAMFDTLGIPKS,3.98
23,QLDKNSEVRQEVQAMFDTLGIPKS,3.12
24,QLDKNSEVSQEVQAMFDTLGIPKS,3.78

row,Variant,protein stability index
1,QLDKNSEVTQEVQAMFDTLGIPKS,4.39
2,QLDKNSEVVQEVQAMFDTLGIPKS,3.27
3,QLDKNSEVWQEVQAMFDTLGIPKS,3.31
4,QLDKNSEVYAEVQAMFDTLGIPKS,3.01
5,QLDKNSEVYCEVQAMFDTLGIPKS,2.63
6,QLDKNSEVYDEVQAMFDTLGIPKS,3.75
7,QLDKNSEVYEEVQAMFDTLGIPKS,3.57
8,QLDKNSEVYFEVQAMFDTLGIPKS,2
9,QLDKNSEVYGEVQAMFDTLGIPKS,3.01
10,QLDKNSEVYHEVQAMFDTLGIPKS,2.75
11,QLDKNSEVYIEVQAMFDTLGIPKS,1.39
12,QLDKNSEVYKEVQAMFDTLGIPKS,2.53
13,QLDKNSEVYLEVQAMFDTLGIPKS,2.18
14,QLDKNSEVYMEVQAMFDTLGIPKS,2.73
15,QLDKNSEVYNEVQAMFDTLGIPKS,3.07
16,QLDKNSEVYPEVQAMFDTLGIPKS,2.73
17,QLDKNSEVYREVQAMFDTLGIPKS,2.29
18,QLDKNSEVYSEVQAMFDTLGIPKS,3.58
19,QLDKNSEVYTEVQAMFDTLGIPKS,3.1
20,QLDKNSEVYVEVQAMFDTLGIPKS,2.08
21,QLDKNSEVYWEVQAMFDTLGIPKS,2.3
22,QLDKNSEVYYEVQAMFDTLGIPKS,2.49
